Data published in PMC13464484, “Ancestral proteins trace the emergence of substrate specificity and oligomerization within bacterial DEDDy dinucleases” (Science Advances, 2026).

Experiments:
[1] = target: Alphaproteobacterial NrnC ortholog from Sphingomonas (Sphingomonas (genus only)); assay: mass photometry; protein at 100 nM in phosphate-buffered saline, TwoMP instrument
[2] = target: NrnC ortholog from Methylobacter (Methylobacter (genus only)); assay: SEC-MALS; purified protein at 1 to 2 mg/ml (~40 to 80 uM) on Superdex 200 Increase 10/300 GL in gel-filtration buffer (25 mM Hepes-NaOH, 150 mM NaCl, pH 7.5; 500 mM NaCl for ancestor A0), room temperature
[3] = target: NrnC ortholog from Thermosynechococcus (Thermosynechococcus (genus only)); assay: as above
[4] = target: diDNase ortholog from Actinomadura (Actinomadura (genus only)); assay: as above
[5] = target: diDNase ortholog from Mycobacterium (Mycobacterium (genus only)); assay: […] (~40 to 80 uM) […], pH 7.5; […], room temperature
[6] = target: diDNase ortholog from Nocardia (Nocardia (genus only)); assay: SEC-MALS; purified protein at 1 to 2 mg/ml (~40 to 80 uM) on Superdex 200 Increase 10/300 GL in gel-filtration buffer (25 mM Hepes-NaOH, 150 mM NaCl, pH 7.5; 500 mM NaCl for ancestor A0), room temperature
[7] = target: the molecule itself; assay: mass photometry; protein at 100 nM in phosphate-buffered saline, TwoMP instrument

For “Alphaproteobacterial NrnC ortholog from Sphingomonas (enzyme)”, the percent dimers [1] was > 85% and the stoichiometry N [1] was 2.

“NrnC ortholog from Methylobacter (enzyme)” showed a stoichiometry N [2] of 8.

In the case of “NrnC ortholog from Thermosynechococcus (enzyme)”, the stoichiometry N [3] is reported as 8.

With “diDNase ortholog from Actinomadura (enzyme)” the stoichiometry N [4] was 2.

With “diDNase ortholog from Mycobacterium (enzyme)” the stoichiometry N [5] was 2.

With diDNase ortholog from Nocardia (enzyme) the stoichiometry N [6] was 2.

B1: Alphaproteobacterial NrnC ortholog from Caulobacter (enzyme)
chain: MANFVHEGDLPDGVFADAEIIAIDSETMGLRLRRDPLCVVQLSAGDGDAHVVRLSRPDYDCPNLKALLTNPKVLKLFHFGRFDIAMFELHLGVVTAPVYCTKIASKLARTYTDRHGLKDVTRELLGVELSKVQQSSDWGAPSLSVDQVAYAASDVLHLHGLRLKLNAMLEREGRMALAQHAFDYLPHRASLDLAGWEEMDIFAHS
In the case of B1, the “stoichiometry N” value [7] is reported as 2.
